The values that follow come from US20140010817A1 (Daiichi Sankyo, published 2014).

For assay [1], the target named is T1, RX protein purified from the culture supernatant of ADSF cells (murine mammary tumor virus (MMTV) …, UniProt P03374 99-474; P03374 475-651).
T1 construct: also called purified RX protein; ADSF cell-derived RX protein
Nature of the assay: SPR (ProteOn XPR36) by the method of Example 4: antibody immobilized, RX protein as analyte.
From the text: (§1) Each antibody was immobilized on a sensor chip (Sensor Chip GLM; Bio-Rad Laboratories, Inc.) by the amine coupling method. The chip was blocked by the addition of 1 M ethanolamine hydrochloride (pH 8.5). ProteOn PBS/Tween, pH 7.4 (PBS, pH 7.4, 0.005% Tween 20) was used as a running buffer solution. The purified RX protein was serially diluted and interacted as an analyte with the immobilized monoclonal antibody to determine the binding affinity. The association rate constant ka and the dissociation rate constant kd were calculated by kinetics analysis using ProteOn Manager™.

Assay [2] deals with T1, RX protein purified from the culture …. Nature of the assay: SPR (ProteOn XPR36), antibody immobilised by amine coupling on a GLM chip, purified RX protein as analyte.
From the text: as §1
The target is the same in assay [3]. In words: SPR (ProteOn XPR36), antibody immobilized by amine coupling, RX protein as analyte.
From the text: as §1
Assay [4] has the same target. In words: SPR. In general terms: Surface plasmon resonance follows binding to a sensor surface in real time, without labels.

B1: Monoclonal Antibody 4 (MAb4) (antibody, V domains shown)
VH: QVKLEESGAELVKPGASVKMSCKASGYTFTIYNIHWVKQTPRQGLEWIGTIFPVNGDTSYNQRFKGKATLTADKSSNTAYMQLSGLTSEDSALYYCARSTTARAWFPYWGQGTLVTVSA
VL: HIVITQTQKFMSTSVGDRVSVTCKASQNVGSNVAWYQQKPGQSPKVLIYSASYRYSGVPDRFTGSGSGTDFTLTISNVQSEDLADFFCQQYNTSPFTFGGGTKLEIK
Consider B1, for which binding in assay [1] was put at a Kd of 0.14 nM.

B2: Monoclonal Antibody 2 (MAb2) (antibody, V domains shown)
VH: EVKLQESGPELKKPGETVKISCKASGYTFRDYPIHWVKQAPGKGLKWMGWINTETGEPTYADDFKGRFAFSLETSANTTYLQINNLKNEDTATYFCTPRFTYWGQGTLVTVSS
VL: DIVMTQTPSSLAVSVGEKVTMSCKSSQNLLYSGNQKNYLAWFQQKPGQSPKLLIYWASTRESGVPDRFTGSGSGTDFTLTLSSVKAEDLAVYYCQQSYRYPYTSGGGTKLEIKR
On to B2, for which, in assay [2], the Kd – broadly, the constant that tells how readily two partners part at equilibrium – amounted to 0.26 nM; the koff (commonly the rate constant with which the complex falls apart) was determined as 0.00021 s⁻¹; the kon – broadly, the rate constant with which the complex forms – was 810000 M⁻¹ s⁻¹. In addition, the Kd in assay [3] is roughly 0.1 nM.

B3: chimerized MAb1 (rat-human chimeric antibody) (antibody, V domains shown)
VH: EVQLVESGGGLVQPGRSLKLSCVGSGFTFSDYYMAWVRQAPKKGLEWVASISYEGSNTNFGDSVKGRFTISRDSAKSTLYLQMNSLRSEDTATYYCARWAQTGYYFDYWGQGVMVTVSS
VL: DIQMTQSPASLSASLGETVTIECLASEDIYSNLAWYQQKPGKSPQLLIYYANSLNDGVPSRFSGSGSGTQFSLKINSLQSEDVSIYFCQQNYDSPYTFGAGAKLELKRA
The molecule B3 gave a Kd in assay [4] of 0.22 nM.
